The values that follow come from US20260273054A1 (published 2026).

Experiment [1] concerns the target T1, EGFR L858R peptide on HLA-A*11:01 (human).
T1 peptide: KITDFGRAK
Put plainly: activation reporter or marker.

Experiment [2] concerns the target T2, EGFR wild type (L858) peptide on HLA-A*11:01 (human).
T2 peptide: VKITDFGLAK
In words: activation reporter or marker.

For experiment [3], the target named is T3, EGFR wild type (L858) peptide on HLA-A*11:01 (human).
T3 peptide: KITDFGLAKL
Put plainly: activation reporter or marker.

In experiment [4] the target is T4, EGFR wild type (L858) peptide on HLA-A*11:01 (human).
T4 peptide: KITDFGLAK
In words: activation reporter or marker.

In experiment [5] the target is T5, EGFR L858R peptide on HLA-A*11:01 (human).
T5 peptide: KITDFGRAKL
In words: activation reporter or marker.

The target in experiment [6] is T1, EGFR L858R peptide on HLA-A*11:01. In words: killing.
Experiment [7] concerns the target T4, EGFR wild type (L858) peptide on …. Put plainly: killing.

B1: 0013-TCR102 (TCR, V domains shown)
Valpha: VGLHLPTLSVQEGDNSIINCAYSNSASDYFIWYKQESGKGPQFIIDIRSNMDKRQGQRVTVLLNKTVKHLSLQIAATQPGDSAVYFCAETPDKLIFGTGTRLQVFP
Vbeta: DTGVSQDPRHKITKRGQNVTFRCDPISEHNRLYWYRQTLGQGPEFLTYFQNEAQLEKSRLLSDRFSAERPKGSFSTLEIQRTEQGDSAMYLCASSGGGDSPLHFGNGTRLTVT
For B1, the binding result in experiment [1] was “recognises”; in experiment [2], “no recognition”; in experiment [3], “no recognition”; in experiment [4] it was “no recognition”; in experiment [5], “no recognition”.

B2: 0013-TCR1 (TCR, V domains shown)
Valpha: QKEVEQNSGPLSVPEGAIASLNCTYSDRGSQSFFWYRQYSGKSPELIMSIYSNGDKEDGRFTAQLNKASQYVSLLIRDSQPSDSATYLCAVYNNNDMRFGAGTRLTVKP
Vbeta: GVSQTPSNKVTEKGKYVELRCDPISGHTALYWYRQSLGQGPEFLIYFQGTGAADDSGLPNDRFFAVRPEGSVSTLKIQRTERGDSAVYLCASSFLAGHLYTGELFFGEGSRLTVL
With B2, the binding result in experiment [6] is given as “recognises”; in experiment [7], “no recognition”; in experiment [2], “no recognition”; in experiment [3] it was “no recognition”.

B3: 0013-TCR319 (TCR, V domains shown)
Valpha: QSVTQPDIHITVSEGASLELRCNYSYGATPYLFWYVQSPGQGLQLLLKYFSGDTLVQGIKGFEAEFKRSQSSFNLRKPSVHWSDAAEYFCAVGGGGADGLTFGKGTHLIIQP
Vbeta: DVKVTQSSRYLVKRTGEKVFLECVQDMDHENMFWYRQDPGLGLRLIYFSYDVKMKEKGDIPEGYSVSREKKERFSLILESASTNQTSMYLCATLWYRQGADGYTFGSGTRLTVV
For the molecule B3, the binding result in experiment [6] is recorded as “recognises”; in experiment [7], “no recognition”; in experiment [2] it was “no recognition”; in experiment [3], “no recognition”; in experiment [5], “no recognition”.
